Experimental data taken from the supplement of paper PMC12042874.
± gives the uncertainty stated by the source.

Assay: amyloid nucleation score (Sup35N fusion, yeast selection) (log enrichment); library NNK1; higher = more nucleation; inactive = no reads after selection
Method in brief: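 Psi-negative yeast expressed Sup35N fused to peptides of 20 random codons. They were induced 24 hours with 100 μM copper sulfate, grown 7 days at 30°C without adenine and uracil, and their plasmid inserts from input and output were Illumina-sequenced. The nucleation score is the DiMSum log enrichment of output over input reads, centred on the mode score of non-aggregating sequences. Sequences with under 100 input reads were excluded.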

| Substance | amyloid nucleation score |
| --- | --- |
| SLGLNMFGLLCSNFQSVRVK | 0.129 ± 0.53 |
| SLGVSDI | -1.16 ± 0.41 |
| SLHCLMFVCSFRVSFEDWGE | 4.77 ± 0.13 |
| SLKDVPISCFNYMHC | 4.39 ± 0.094 |
| SLKMEDFKKNSKMRMDFINH | 1.85 ± 0.19 |
| SLLALLPLQYWVYRIKNLVH | -0.057 ± 1.5 |
| SLLCWKLAVHQLGMIGNIYS | -0.452 ± 0.47 |
| SLLNRVGLWRRSSLCLMTGC | 0.538 ± 0.26 |
| SLLSAMDLPPFLSYRLSPRW | 0.059 ± 1.2 |
| SLLSFCQSSRVTESSMAYCT | inactive |
| SLLTWFREYVDYTLYQWPGY | -0.131 ± 0.76 |
| SLNPALFTVSYPLVMLENDT | 0.19 ± 0.29 |
| SLNSTFFCIEISVDDIEVLQ | -0.609 ± 0.52 |
| SLPSNHTVLWTVWMMVFGAR | -1.09 ± 0.96 |
| SLSFTEVGRNRLSWRSAHSK | -0.616 ± 1.7 |
| SLSNCTGKNVLVTLS | 0.428 ± 1.2 |
| SLSRCMIYDYR | inactive |
| SLSRLRHNSFWQRTFAMLVS | inactive |
| SLTDAEGSWLHRSWVKWNRC | -0.208 ± 0.62 |
| SLVLVYGFWELYLW | 0.689 ± 0.84 |
| SLVTDCYVPGFLYAMVIHAG | 1.01 ± 0.45 |
| SLVYQYIVLCTV | -1.47 ± 1.2 |
| SLWFTYCQ | 0.751 ± 0.38 |
| SLYAQVCWRSVEFYPRLFPE | 2.26 ± 0.12 |

| Substance | amyloid nucleation score |
| --- | --- |
| SLYLYMGWPSHWVESVLPYG | 0.043 ± 0.89 |
| SLYVYISRFMTLMGCLTVNH | 0.575 ± 0.35 |
| SMCNCDPSVALRSMY | -0.279 ± 0.25 |
| SMDLLRDLSVDKWAFF | 0.133 ± 0.33 |
| SMFGFTYIVGRMDGSIGWSL | 0.647 ± 0.22 |
| SMFRAFKGYLWGNCSREAQR | 0.026 ± 0.25 |
| SMFRVYYSGGQLQ | 4.75 ± 0.058 |
| SMGQHHMGGWVYGRKAEKLS | -0.185 ± 0.37 |
| SMIGCYMTF | 0.073 ± 0.36 |
| SMKWSLYLQCRIMYIQTDSR | 3.21 ± 0.12 |
| SMMSGCGTGVAPKAWSGDGW | 0.974 ± 0.62 |
| SMPCQWR | 0.503 ± 0.51 |
| SMQQVSTSVQKVMDAYHWGW | 0.554 ± 0.79 |
| SMQSSVDYKRGAMTFI | 0.424 ± 0.69 |
| SMRLGKTIAVLVINEHGMLQ | 2.17 ± 0.11 |
| SMTLMWTTPSSYIAWI | -0.792 ± 0.48 |
| SMWKWDQKGKDNGTKNNKRL | -0.939 ± 0.8 |
| SMYFSHVSPFVWRSYCFLVC | inactive |
| SNFMGQD | 0.733 ± 0.7 |
| SNGIQPMERI | -1.01 ± 1.7 |
| SNIQDCYRFEGLHKKTNENL | -0.684 ± 0.91 |
| SNLLTRSPLMLSSIIMVMNC | -0.133 ± 0.75 |
| SNMTSRYYNCMVTWVRILVR | 1.19 ± 0.41 |
| SNPSVNRHFVSSRGWLGKSN | -0.422 ± 1.4 |

| Substance | amyloid nucleation score |
| --- | --- |
| SNRCSPDMESDVHSVKELYR | 0.762 ± 0.41 |
| SNSRFMLHGWAGIWFIWSWG | 0.124 ± 0.5 |
| SNVAVRTSCYTGARMYTRWW | 1.94 ± 0.19 |
| SPFSGVL | 0.589 ± 0.25 |
| SPHSLTFSLMVMVRKKMMRS | 0.012 ± 1.4 |
| SPIMEKACVD | -0.053 ± 1.6 |
| SPKSLLKRLWEYARKNTVML | 0.151 ± 0.49 |
| SPPDVSNN | -0.169 ± 0.75 |
| SPPSLRNLNYIFAY | -0.948 ± 2.4 |
| SQAAGSVY | 0.026 ± 0.25 |
| SQEHCMVNTK | 0.112 ± 0.59 |
| SQFYVLVIWLSCALSMGSSI | -0.04 ± 0.45 |
| SQMTDYVFTL | 0.848 ± 0.85 |
| SQTSVPGGSDEAGAGVKQGF | 0.134 ± 0.56 |
| SRCCRYLKHVRSIGSVQVAS | 1.16 ± 0.32 |
| SRCRNYYKVHVL | -1.17 ± 1.7 |
| SRDVVSAGYKKCGYGMYCTK | 1.11 ± 0.37 |
| SRFHVKLRLYFGSNIARTSK | 6.618 ± 0.061 |
| SRGHDVRLTACDADGGLGLC | -0.17 ± 0.46 |
| SRISMVMVLSLFSVKFRWNP | 0.328 ± 0.24 |
| SRLLMKRIYYCVYPKGTTKK | inactive |
| SRNNCSNRRDYHGIYSMRIS | 0.513 ± 0.79 |
| SRRFYLTPELPVTHVCCVGK | 1.03 ± 0.62 |
| SRRKQIVGKVSVFFEASRFV | -1.06 ± 1.2 |

| Substance | amyloid nucleation score |
| --- | --- |
| SRVEWEDVYENVGGKGTSRE | -0.087 ± 0.44 |
| SRVNCYSSHSFSKYGRVGKS | -0.004 ± 0.59 |
| SRVRVLASVSFMTVRMVFEV | 0.436 ± 0.25 |
| SRWPAVVRTLFRSCKV | 0.48 ± 0.65 |
| SRYALLIYVLEDGCLAVLKP | 0.562 ± 1.2 |
| SRYYNILWNKVCRVRDNH | inactive |
| SSAFSLRLFDLSLNYFEFDE | -0.595 ± 0.68 |
| SSCNRRSHKP | -0.471 ± 0.54 |
| SSERGTWIMVARVQSVTNNV | inactive |
| SSEVRMTVVSLGPLMDRPNV | -0.243 ± 0.68 |
| SSFQIRVSVLRRHCISGLIY | 1.01 ± 0.79 |
| SSGDGRRAP | 0.335 ± 0.39 |
| SSIRNVTAICINGSRLINVL | 1.1 ± 0.54 |
| SSLGIGFAPLISSFISC | -0.429 ± 0.64 |
| SSLYETY | inactive |
| SSMMLDYCRSYCANISTKCQ | 0.675 ± 0.24 |
| SSRNSAAFLNHFDADRGLLP | 1.53 ± 0.14 |
| SSSFGHYDTWLYSSLFQGLT | 3.46 ± 0.14 |
| SSSHPSLIGNLDTRLNWMTM | 1.52 ± 0.32 |
| SSSVVSV | 0.102 ± 0.33 |
| SSSVYVVVEPDMNGLMGMRK | 0.08 ± 0.61 |
| SSSYVYYEGRFILTFGLF | -0.157 ± 0.47 |
| SSTGAVLIHNCTTRSVDLSG | 0.45 ± 0.69 |
| SSTLFMKSYIFDPQKLNSPP | 0.375 ± 0.42 |

| Substance | amyloid nucleation score |
| --- | --- |
| SSVLVLHYRTSG | 2.58 ± 0.09 |
| SSVYFSRFTERQKAVRETGS | inactive |
| SSWLC | 1.4 ± 0.47 |
| SSYDWCWSHVCFK | 0.8 ± 0.38 |
| SSYNLKYLWGCIC | 7.263 ± 0.048 |
| SSYVNRDCAFLWDD | 2.75 ± 0.19 |
| STDMYVPVPDTDWIICLRQL | -0.23 ± 0.56 |
| STDSCVALSMATWF | 0.188 ± 0.46 |
| STFMSILTSESTMRNGITNR | inactive |
| STKKLYTILRHWSYDFAESG | -0.509 ± 1.7 |
| STKQFFRLAFRGPWKTGHKP | 0.273 ± 0.96 |
| STKWLFGKNGVSLYLLSRRR | 2.58 ± 0.13 |
| STLFSWNRRNCDTHVLLVPW | inactive |
| STPNRLGPMPSWVGSTEAVV | -0.474 ± 1.1 |
| STRDQSDVMDRLTGEHHQQW | 0.363 ± 0.41 |
| STTILCLLI | 5.21 ± 0.061 |
| STTIPRVFGSTYNSYNVSIS | 0.384 ± 0.34 |
| STTPQRLNFDMSTPISWIRQ | 0.173 ± 0.32 |
| STTYCFFSYAGLRICYALMG | 1.3 ± 0.2 |
| STVRSAPFSWLPGKYGWSKC | -0.214 ± 0.98 |
| STYTALIFLHRSVFDLPSVQ | 0.787 ± 0.68 |
| SVCILHMRRSCVGKPPKYNA | inactive |
| SVELGSGLMMWGTNSKLTVV | 0.649 ± 0.76 |
| SVGYH | 0.699 ± 0.59 |

| Substance | amyloid nucleation score |
| --- | --- |
| SVILIGRRDDHASSIRVIGS | -0.752 ± 0.69 |
| SVIRDWLSGACSGTTEGRRT | -0.295 ± 0.43 |
| SVLCHCVLNVWLGWHLWIDP | 0.707 ± 0.53 |
| SVLGSHSRAKLITAWPTRKI | inactive |
| SVLKSITPNGPLLFSYVCSI | -1.56 ± 0.58 |
| SVLTGNVTGDDGLCKSSIYA | 0.515 ± 0.34 |
| SVLYRINP | -1.55 ± 2.4 |
| SVMAGSYITPVRMRKKKLFV | inactive |
| SVNLNFLFAL | 8.056 ± 0.056 |
| SVPDVVSYTKDTVVFNFGFT | 3.31 ± 0.083 |
| SVRVHFMVRHGLGVRLSASD | 1.61 ± 0.16 |
| SVRYYLLYHNFIMSSADKLS | 6.485 ± 0.05 |
| SVSLFMITVFNVTC | 2.4 ± 0.14 |
| SVVLCMNCGGCLMEIKGGGY | 4.89 ± 0.096 |
| SVWDGFSLRYPSLVYLRCGS | -0.634 ± 0.71 |
| SVYWKYLYP | 1.98 ± 0.098 |
| SWCLKDMSNMLLASIRRFVL | inactive |
| SWDSLGHYNGAIE | -0.268 ± 0.54 |
| SWHLDWFTYPFNKSD | inactive |
| SWSLALL | -0.278 ± 0.85 |
| SWTGMNSHSLKKHLGI | -0.447 ± 0.93 |
| SYAFLCNGSSRGLIIAMVLT | -0.057 ± 0.29 |
| SYAYKLETNSRFMIQWKVQY | 3.48 ± 0.092 |
| SYCLLIDLLLHSHVGLYSPM | 0.519 ± 0.33 |

| Substance | amyloid nucleation score |
| --- | --- |
| SYEHVGKPCSCGYGVEI | 0.735 ± 0.32 |
| SYFWYCGPSDDYNKPSCSMW | -0.441 ± 0.8 |
| SYGNVLVGHGV | -0.044 ± 0.61 |
| SYKGFRSGKVWCFNEASYTS | 1.18 ± 0.45 |
| SYLFVKGLIYSLSRLCLEVN | -1.4 ± 0.7 |
| SYLFVWFTSLLSDPQ | -0.716 ± 1.2 |
| SYLMQSFDKLCAA | -0.033 ± 1.1 |
| SYNFLRPYLLFSHPFSYDSS | 0.21 ± 0.6 |
| SYNMTITACSNGFPEQRDT | 0.062 ± 0.73 |
| SYSGTVCNRLRLVLVVDD | -0.098 ± 0.47 |
| SYSKGGMSPFWWTTHRCDIM | 2.09 ± 0.35 |
| SYVVETQFSSHFSVLWDLMF | -1.49 ± 1.2 |
| SYWCSHIIIERMLVLVHRIV | 1.19 ± 0.59 |
| TACPNSGNFERYGHYRSSSA | 1.12 ± 0.58 |
| TACRLQYSNSYLFLSSAEPV | 1.28 ± 0.69 |
| TAIDITTVLCIICRDPHINL | 8.364 ± 0.048 |
| TAKSFFRVHFSHWTRHSPSR | 4.16 ± 0.14 |
| TANTLRYSFCAT | -0.213 ± 0.32 |
| TAQMKDFSLRRNVGFVGSRW | inactive |
| TARWAKPVADNGCVNNTFLW | 2.15 ± 0.27 |
| TASFY | -0.41 ± 1.6 |
| TAWSSHPEV | -1.16 ± 2.4 |
| TCFMNVSTQFCMSYKAQRSV | 0.11 ± 0.59 |
| TCFTLGRPNSLFCDCIGHKS | -0.011 ± 0.29 |
